Reference: patent publication US20120172293A1 (Takeda / Millennium, published 2012)
Non-standard residues stand in square brackets, D forms with d. *: point of attachment. Morpholinocarbonyl = O=C(N1CCOCC1)*; Amidino = amidino group, N=C(N)*; tBuAla = CC(C)(C)C[C@H](N)C(=O)O; Cha = N[C@@H](CC1CCCCC1)C(=O)O; Aib = CC(C)(N)C(=O)O; Carbamoyl = NC(=O)*

Columns and labels:
[1] = target: T1, human Y2 receptor (human, UniProt P49146 1-381); assay: RBA: [125I]-PYY displacement, hY2R/CHO membranes
T1 construct: whole, on cells; used as membrane fraction of hY2R/CHO cells; also called human NPY2R; hY2R
T1 sequence (looked up): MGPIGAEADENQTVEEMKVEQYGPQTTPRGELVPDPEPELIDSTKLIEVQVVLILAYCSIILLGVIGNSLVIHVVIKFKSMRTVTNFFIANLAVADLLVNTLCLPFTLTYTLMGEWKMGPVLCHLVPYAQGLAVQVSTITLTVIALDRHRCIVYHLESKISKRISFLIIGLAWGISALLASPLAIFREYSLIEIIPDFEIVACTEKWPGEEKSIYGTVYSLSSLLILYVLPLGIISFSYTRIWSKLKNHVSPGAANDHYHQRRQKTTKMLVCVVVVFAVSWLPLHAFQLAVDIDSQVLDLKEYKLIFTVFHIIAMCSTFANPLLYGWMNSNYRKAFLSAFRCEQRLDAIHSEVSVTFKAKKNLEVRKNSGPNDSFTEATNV
Protocol: After incubation at room temperature for 60 minutes, the mixture was filtered through the cell harvester FilterMate (PerkinElmer) using UniFilter-96 GF/C treated with polyethylenimine (PEI) solution (20 mM Tris, 0.3% PEI, pH 7.4), and the filter was washed 3 times with a filtering buffer (50 mM Tris, 5 mM MgCl₂, 150 mM NaCl, 0.03% NaN₃, 0.05% CHAPS, pH 7.4). Thereafter, UniFilter-96 GF/C was dried in a mechanical drier for 1 hour, 15 μl of the liquid scintillator MicroScint O (PerkinElmer) was added to each well, and a measurement was taken using TopCount (PerkinElmer). The data obtained were analyzed using Prism to calculate the IC₅₀ value.

[2] = target: T1, human Y2 receptor; assay: cell-based or functional assay

Binder	IC50 Ratio (vs PYY(3-36)) [1] [ratio]	GBA EC50 Ratio (vs PYY(3-36)), [35S]GTPγS [2] [ratio]
Carbamoyl-D[dP]RH[Cha][Cha]NL[Aib]TRQR[Cha]-NH2 (SMILES CC(C)C[C@H](NC(=O)[C@H](CC(N)=O)NC(=O)[C@H](CC1CCCCC1)NC(=O)[C@H](CC1CCCCC1)NC(=O)[C@H](Cc1c[nH]cn1)NC(=O)[C@H](CCCNC(=N)N)NC(=O)[C@H]1CCCN1C(=O)[C@H](CC(=O)O)NC(N)=O)C(=O)NC(C)(C)C(=O)N[C@H](C(=O)N[C@@H](CCCNC(=N)N)C(=O)N[C@@H](CCC(N)=O)C(=O)N[C@@H](CCCNC(=N)N)C(=O)N[C@@H](CC1CCCCC1)C(N)=O)[C@@H](C)O, also called compound No. 161; ureido-[Asp23,D-Pro24,Cha27,28,36,Aib31]-PYY(23-36)) [Carbamoyl-[Asp23, D-Pro24, Cha27,28,36, Aib31]-PYY(23-36)]	4.1	2.4
Morpholinocarbonyl-D[dP]RH[Cha][Cha]NL[Aib]TRQR[Cha]-NH2 (SMILES CC(C)C[C@H](NC(=O)[C@H](CC(N)=O)NC(=O)[C@H](CC1CCCCC1)NC(=O)[C@H](CC1CCCCC1)NC(=O)[C@H](Cc1c[nH]cn1)NC(=O)[C@H](CCCNC(=N)N)NC(=O)[C@H]1CCCN1C(=O)[C@H](CC(=O)O)NC(=O)N1CCOCC1)C(=O)NC(C)(C)C(=O)N[C@H](C(=O)N[C@@H](CCCNC(=N)N)C(=O)N[C@@H](CCC(N)=O)C(=O)N[C@@H](CCCNC(=N)N)C(=O)N[C@@H](CC1CCCCC1)C(N)=O)[C@@H](C)O, also called compound No. 173) [Morpholinocarbonyl-[Asp23, D-Pro24, Cha27,28,36, Aib31]-PYY(23-36)]	2.9	1.4
Morpholinocarbonyl-E[dP]RH[Cha][Cha]NL[Aib]TRQR[Cha]-NH2 (SMILES CC(C)C[C@H](NC(=O)[C@H](CC(N)=O)NC(=O)[C@H](CC1CCCCC1)NC(=O)[C@H](CC1CCCCC1)NC(=O)[C@H](Cc1c[nH]cn1)NC(=O)[C@H](CCCNC(=N)N)NC(=O)[C@H]1CCCN1C(=O)[C@H](CCC(=O)O)NC(=O)N1CCOCC1)C(=O)NC(C)(C)C(=O)N[C@H](C(=O)N[C@@H](CCCNC(=N)N)C(=O)N[C@@H](CCC(N)=O)C(=O)N[C@@H](CCCNC(=N)N)C(=O)N[C@@H](CC1CCCCC1)C(N)=O)[C@@H](C)O, also called compound No. 174) [Morpholinocarbonyl-[Glu23, D-Pro24, Cha27,28,36, Aib31]-PYY(23-36)]	1.9	1
Morpholinocarbonyl-E[dP]RH[Cha][Cha]NK[Aib]TRQR[Cha]-NH2 (SMILES C[C@@H](O)[C@H](NC(=O)C(C)(C)NC(=O)[C@H](CCCCN)NC(=O)[C@H](CC(N)=O)NC(=O)[C@H](CC1CCCCC1)NC(=O)[C@H](CC1CCCCC1)NC(=O)[C@H](Cc1c[nH]cn1)NC(=O)[C@H](CCCNC(=N)N)NC(=O)[C@H]1CCCN1C(=O)[C@H](CCC(=O)O)NC(=O)N1CCOCC1)C(=O)N[C@@H](CCCNC(=N)N)C(=O)N[C@@H](CCC(N)=O)C(=O)N[C@@H](CCCNC(=N)N)C(=O)N[C@@H](CC1CCCCC1)C(N)=O, also called compound No. 191) [Morpholinocarbonyl-[Glu23, D-Pro24, Cha27,28,36, Lys30, Aib31]-PYY(23-36)]	1.4	1.4

Next, values leading:

IC50 Ratio (vs PYY(3-36)) [1] [ratio]	GBA EC50 Ratio (vs PYY(3-36)), [35S]GTPγS [2] [ratio]	Binder
0.66	0.77	Amidino-E[dP]RH[Cha][Cha]NK[Aib]TRQR[Cha]-NH2 (SMILES C[C@@H](O)[C@H](NC(=O)C(C)(C)NC(=O)[C@H](CCCCN)NC(=O)[C@H](CC(N)=O)NC(=O)[C@H](CC1CCCCC1)NC(=O)[C@H](CC1CCCCC1)NC(=O)[C@H](Cc1c[nH]cn1)NC(=O)[C@H](CCCNC(=N)N)NC(=O)[C@H]1CCCN1C(=O)[C@H](CCC(=O)O)NC(=N)N)C(=O)N[C@@H](CCCNC(=N)N)C(=O)N[C@@H](CCC(N)=O)C(=O)N[C@@H](CCCNC(=N)N)C(=O)N[C@@H](CC1CCCCC1)C(N)=O, also called compound No. 190) [Amidino-[Glu23, D-Pro24, Cha27,28,36, Lys30, Aib31]-PYY(23-36)]
0.66	0.84	Morpholinocarbonyl-S[dP]RH[Cha][tBuAla]NK[Aib]TRQR[Cha]-NH2 (SMILES C[C@@H](O)[C@H](NC(=O)C(C)(C)NC(=O)[C@H](CCCCN)NC(=O)[C@H](CC(N)=O)NC(=O)[C@H](CC(C)(C)C)NC(=O)[C@H](CC1CCCCC1)NC(=O)[C@H](Cc1c[nH]cn1)NC(=O)[C@H](CCCNC(=N)N)NC(=O)[C@H]1CCCN1C(=O)[C@H](CO)NC(=O)N1CCOCC1)C(=O)N[C@@H](CCCNC(=N)N)C(=O)N[C@@H](CCC(N)=O)C(=O)N[C@@H](CCCNC(=N)N)C(=O)N[C@@H](CC1CCCCC1)C(N)=O, also called compound No. 187) [Morpholinocarbonyl-[D-Pro24, Cha27,36, Leu(Me)28, Lys30, Aib31]-PYY(23-36)]
